Bridges are numbered along the chain shown (N, C = ends).
Assays:
[1] = Circular dichroism (CD) spectroscopy of linear and stapled peptides in water or 40% TFE/water (Example 3); assay type: physicochemical; conditions: for [0]208 mean residue ellipticity: λ = 208 nm; for [0]222 mean residue ellipticity: λ = 222 nm
Experimental: CD spectra were obtained on a Jasco J-810 spectropolarimeter and recorded in the range of 180-260 nm. Peptide solutions were prepared with a 0.1M phosphate buffer solution to a concentration of 0.5 mM. The measurements were performed in quartz cuvettes with a path length of 1 mm and a scanning speed of 10-50 nm/min. Five individual data points were averaged by the instrument in order to obtain the reported CD spectrum. The measurements were carried out at 20° C. A blank solution of 0.1M phosphate buffer solution was run before every measurement in order to baseline correct for any UV-interference observed from the buffer.
CD data for the 14- and 15-mer peptides containing HABD2 (VSKLRSQLVKRKQN, SEQ ID NO: 2) and HABD1 (NLKQKIKHVVKLKDE, SEQ ID NO: 4) and cyclized derivatives thereof in water or 40% TFE/water are provided below in Tables 8 (water) and 9 (40% TFE/water). Tables 8 and 9 provide the mean residue ellipicity ([θ] deg cm^2 dmol^−1) at λ=222 and 208 nm for each peptide and ratios of ellipticities at 222/208. Each of the peptides was acetylated at its amino terminus and amidated at its carboxy terminus.
CD data for linear peptides having the sequences […] (SEQ ID NO: 5) and […] (SEQ ID NO: 6) and cyclized derivatives thereof in water or 40% TFE/water are provided below in Tables 12 (water) and 13 (40% TFE/water). Tables 12 and 13 provide the mean residue ellipicity ([0] deg cm^2 dmol^−1) at λ=222 and 208 nm for each peptide and ratios of ellipticities at 222/208. Each of the peptides was acetylated at its amino terminus and amidated at its carboxy terminus.
Circular Dichroism (CD) spectroscopy is a tool that is used to study the secondary structure characteristics of a compound. Peptides and proteins can fold into organized structures, such as alpha helices and beta sheets, which are the result of complex hydrogen bonding and other interactions between amino acid side chains, as well as adopt a random coil formation, which lacks much of the organization of the other two structures. The CD spectrum of an alpha helix is characterized by two local minima at 208 nm and 222 nm. The ratio of the values of the molar ellipticities at these wavelengths ([θ]222/[θ]208) is a strong indication of the relative helicity of a compound; a compound is more helical when the ratio of these two values approaches 1.0. Synthetic constraints introduced to the peptide backbone can force a peptide chain to increase its helical character. These constraints can be introduced by staples, of varying types, which allow cyclization of the peptide backbone to take place.

NF-κB = test: Inflammation assay: NF-κB inducible SEAP reporter in RAW-Blue macrophages stimulated with PAM3CSK4; assay type: cell-based, murine; conditions: for Inflammation (% Inhib.): % inhibition relative to positive control
Experimental: Compounds 132, 133, 135, 150, 152, 157-161, 265-269, 275, 277, and 278 were evaluated for their ability to inhibit inflammation. To determine the effect of the peptides on inflammation, commercially available murine RAW 264.7 macrophages carrying a secreted embryonic alkaline phosphatase (SEAP) reporter that is inducible by NF-κB (RAW-Blue; InvivoGen, San Diego, Calif., USA) were used. Cells were grown to 80% confluence in DMEM containing 4.5 g/L glucose, 10% heat-inactivated fetal bovine serum, 2 mM L-glutamine, 50 μg/mL penicillin/streptomycin, 100 μg/mL Normocin (InvivoGen) at 37° C. in 5% CO2. For peptide screening experiments, cells were scraped in growth medium, counted, and plated to flat-bottom 96-well plates at a density of 5×10^4 cells/well either in the presence or absence (control) of 200 ng/mL TLR1/TLR2 agonist PAM3CSK4 (InvivoGen). Peptides were added in 6 replicate wells at a dose of 10 ng/mL in the presence of PAM3CSK4. After 18 hours of stimulation, SEAP concentrations (indicating NF-κB activity) were measured in the supernatants collected from the RAW-Blue cells using QUANTI-BLUE reagent (InvivoGen). After 20 minutes of incubation at 37° C., SEAP levels were determined using spectrophotometry at a wavelength of 630 nm.
Values are the mean and SDM of n=3 replicates. *p<0.05 and ***p<0.001 compared to +PAM3. In FIGS. 44 and 45, where bars are labeled with two compound numbers (“133/150” and “135/152”) this means that the data were pooled for the indicated compounds, i.e., for the non-acetylated and acetylated versions of the indicated peptides.

[2] = [θ]222/[θ]208 ratio in water, summary tables 15, 17, 19
[3] = as repeated in tables 16, 18, 20

Substance | [0]208 mean residue ellipticity at λ=208 nm ([1]; 40% TFE/water) [deg cm^2 dmol^−1] | [0]222/[0]208 ratio of ellipticities ([1]; 40% TFE/water) | [0]222 mean residue ellipticity at λ=222 nm ([1]; 40% TFE/water) [deg cm^2 dmol^−1] | [θ]222/[θ]208 ratio of ellipticities [1, 2] | [θ]222/[θ]208 ratio of ellipticities [1, 3] | [0]222/[0]208 ratio of ellipticities ([1]; in water) | [0]208 mean residue ellipticity at λ=208 nm ([1]; water) [deg cm^2 dmol^−1] | [0]222/[0]208 ratio of ellipticities ([1]; water) | [0]222 mean residue ellipticity at λ=222 nm ([1]; water) [deg cm^2 dmol^−1] | Inflammation (% Inhib.) (NF-κB) | [0]222/[0]208 ratio of ellipticities ([1]; in 40% TFE/water) | [0]208 mean residue ellipticity ([1]; in 40% TFE/water) [deg cm^2 dmol^−1] | [0]208 mean residue ellipticity ([1]; in water) | [0]222 mean residue ellipticity ([1]; in 40% TFE/water) [deg cm^2 dmol^−1] | [0]222 mean residue ellipticity ([1]; in water) [deg cm^2 dmol^−1] | alpha-helical character by CD (in words) ([1]; in water) | inhibition of inflammation (SEAP / NF-κB activity, in words) (NF-κB; 10 ng/mL peptide with 200 ng/mL PAM3CSK4, 18 hours, compared to +PAM3)
Ac-(cyclo-11-15, cyclo-16-20)-KIKHVVKLKD[ENSQK][ESEVK]KLRSQLVKRIK-NH2 [Compound 267] | -3.02E04 | 0.77 | -2.34E04 | 0.48 | 0.48 | 0.48 | -1.29E+04 | 0.48 | -6.14E+03 | 0 | – | – | – | – | – | – | –
Ac-(cyclo-7,11)-NLKQKI[EHVVK]LKDE-NH2 (Ac-NLKQKIEHVVKLKDE-NH2; lactam 7-11; SMILES CC[C@H](C)[C@H](NC(=O)[C@H](CCCCN)NC(=O)[C@H](CCC(N)=O)NC(=O)[C@H](CCCCN)NC(=O)[C@H](CC(C)C)NC(=O)[C@H](CC(N)=O)NC(C)=O)C(=O)N[C@H]1CCC(=O)NCCCC[C@@H](C(=O)N[C@@H](CC(C)C)C(=O)N[C@@H](CCCCN)C(=O)N[C@@H](CC(=O)O)C(=O)N[C@@H](CCC(=O)O)C(N)=O)NC(=O)[C@H](C(C)C)NC(=O)[C@H](C(C)C)NC(=O)[C@H](Cc2c[nH]cn2)NC1=O) [Compound 160] | – | – | – | 0.55 | 0.55 | 0.55 | – | – | – | 0 | 0.86 | -1.65E+04 | -6.98E+03 deg cm^2 dmol^−1 | -1.42E+04 | -3.85E+03 | – | –
Ac-VSKLRSQLVKRKQN-NH2 [Compound 132] | – | – | – | 0.13 | 0.13 | 0.13 | – | – | – | 0 | 0.72 | -1.59E+04 | -4,85E+03 deg cm^2 dmol^−1 | -1.14E+04 | -1.10E+03 | nominal alpha helical character in water | –
Ac-(cyclo-8,12)-NLKQKIK[EVVKK]KDE-NH2 (Ac-NLKQKIKEVVKKKDE-NH2; lactam 8-12; SMILES CC[C@H](C)[C@H](NC(=O)[C@H](CCCCN)NC(=O)[C@H](CCC(N)=O)NC(=O)[C@H](CCCCN)NC(=O)[C@H](CC(C)C)NC(=O)[C@H](CC(N)=O)NC(C)=O)C(=O)N[C@@H](CCCCN)C(=O)N[C@H]1CCC(=O)NCCCC[C@@H](C(=O)N[C@@H](CCCCN)C(=O)N[C@@H](CC(=O)O)C(=O)N[C@@H](CCC(=O)O)C(N)=O)NC(=O)[C@H](CCCCN)NC(=O)[C@H](C(C)C)NC(=O)[C@H](C(C)C)NC1=O) [Compound 161] | – | – | – | 0.31 | 0.31 | 0.31 | – | – | – | 6 | 0.82 | -1.96E+04 | -5.85E+03 deg cm^2 dmol^−1 | -1.60E+04 | -1.80E+03 | decreased helicity | significantly inhibited inflammation
Ac-(cyclo-6,10)-NLKQK[EKHVK]KLKDE-NH2 (Ac-NLKQKEKHVKKLKDE-NH2; lactam 6-10; SMILES CC(=O)N[C@@H](CC(N)=O)C(=O)N[C@@H](CC(C)C)C(=O)N[C@@H](CCCCN)C(=O)N[C@@H](CCC(N)=O)C(=O)N[C@@H](CCCCN)C(=O)N[C@H]1CCC(=O)NCCCC[C@@H](C(=O)N[C@@H](CCCCN)C(=O)N[C@@H](CC(C)C)C(=O)N[C@@H](CCCCN)C(=O)N[C@@H](CC(=O)O)C(=O)N[C@@H](CCC(=O)O)C(N)=O)NC(=O)[C@H](C(C)C)NC(=O)[C@H](Cc2c[nH]cn2)NC(=O)[C@H](CCCCN)NC1=O) [Compound 159] | – | – | – | 0.44 | 0.44 | 0.44 | – | – | – | 0 | 0.85 | – | -5.95E+03 deg cm^2 dmol^−1 | -1.26E+04 | -2.61E+03 | – | –
Ac-(cyclo-7,11)-VSKLRS[ELVKK]KQN-NH2 (Ac-VSKLRSELVKKKQN-NH2; lactam 7-11; SMILES CC(=O)N[C@H](C(=O)N[C@@H](CO)C(=O)N[C@@H](CCCCN)C(=O)N[C@@H](CC(C)C)C(=O)N[C@@H](CCCNC(=N)N)C(=O)N[C@@H](CO)C(=O)N[C@H]1CCC(=O)NCCCC[C@@H](C(=O)N[C@@H](CCCCN)C(=O)N[C@@H](CCC(N)=O)C(=O)N[C@@H](CC(N)=O)C(N)=O)NC(=O)[C@H](CCCCN)NC(=O)[C@H](C(C)C)NC(=O)[C@H](CC(C)C)NC1=O)C(C)C) [Compound 153] | – | – | – | 0.54 | 0.54 | 0.54 | – | – | – | – | 0.74 | -1.02E+04 | -6.79E+03 deg cm^2 dmol^−1 | -8.53E+03 | -3.68E+03 | decreased helicity | –
Ac-NLKQKIKHVVKLKDENSQLKSEVSKLRSQLVKRKQN-NH2 [Compound 275] | -3.52E04 | 0.83 | -2.96E04 | 0.35 | 0.35 | – | -9.71E+03 | 0.35 | -3.35E+03 | 0 | – | – | – | – | – | – | –
Ac-(cyclo-5,9)-VSKL[ESQLK]KRKQN-NH2 (Ac-VSKLESQLKKRKQN-NH2; lactam 5-9; SMILES CC(=O)N[C@H](C(=O)N[C@@H](CO)C(=O)N[C@@H](CCCCN)C(=O)N[C@@H](CC(C)C)C(=O)N[C@H]1CCC(=O)NCCCC[C@@H](C(=O)N[C@@H](CCCCN)C(=O)N[C@@H](CCCNC(=N)N)C(=O)N[C@@H](CCCCN)C(=O)N[C@@H](CCC(N)=O)C(=O)N[C@@H](CC(N)=O)C(N)=O)NC(=O)[C@H](CC(C)C)NC(=O)[C@H](CCC(N)=O)NC(=O)[C@H](CO)NC1=O)C(C)C) [Compound 151] | – | – | – | 0.70 | 0.70 | 0.70 | – | – | – | – | 0.82 | -1.62E+04 | -9.25E+03 deg cm^2 dmol^−1 | -1.33E+04 | -6.45E+03 | alpha-helical character equal to that of the linear peptide | –

— patent publication US10562935B2, “Stapled peptides and uses thereof” (London Health Sciences Centre Research Inc., priority 2015, dated 2020)
